Results taken from patent publication US20250304700A1, “ANTI-BLOOD DENDRITIC CELL ANTIGEN 2 ANTIBODIES AND USES THEREOF” (Biogen MA Inc., priority 2012, published 2025).
Entries after “also recorded” stand apart in the source; their conditions may differ.

What was measured:
[1] = system: TLR9-induced IFNα production in whole blood; experiment: Pre-incubation (internalization) before TLR9 stimulation, IFNα in whole blood; assay type: cell-based, human; details: up to 9 hours pre-incubation, then 200 μg/mL CpG-A for 18 hours
Method: The following experiment was conducted to ascertain whether BIIB059-mediated receptor internalization affected IFN inhibition. […] At each time point after pre-incubation, cells were challenged with 200 μg/mL CpGA and incubated for an additional 18 hours at 37° C. Supernatants were collected for use in IFNα ELISA assays (PBL InterferonSource). The assays were performed according to the manufacturer's protocol. FIG. 19B is a representative experiment of 3 independent experiments performed. […] In addition, we have previously shown that bivalent binding was necessary for anti-BDCA2 mediated IFN inhibition.
At each time point after pre-incubation, cells were stimulated with 200 μg/mL TLR9 ligand (CpG-A) and incubated for an additional 18 hours at 37° C. Supernatants were collected for use in IFNα ELISA assays (PBL InterferonSource).

human BDCA2 ectodomain = molecular target: T1, human BDCA2 ectodomain (Homo sapiens, UniProt Q8WTT0); experiment: Octet binding of mAbs on anti-human Fc tips to monomeric huBDCA2
T1 construct: huBDCA2 ectodomain: residues 257-425 above (underlined); murine IgG2a Fc (with G4S linker) (N, cleaved yes); made in house
T1 sequence (Q8WTT0 45-213): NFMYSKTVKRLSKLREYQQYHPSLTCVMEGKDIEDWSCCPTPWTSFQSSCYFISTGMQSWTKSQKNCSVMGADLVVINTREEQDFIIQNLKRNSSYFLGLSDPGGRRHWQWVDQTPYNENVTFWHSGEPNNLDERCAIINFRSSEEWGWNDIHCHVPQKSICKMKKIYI
Method: Site-directed mutagenesis was performed using Agilent's QuikChange II mutagenesis kit following the manufacturer's recommended protocol. The C95S variant was constructed using the mutagenic primer 5′ GCAACCTATTACTGTCAACAAAGTAATGAGGATCCTCGGAC 3′ (SEQ ID NO: 38) and its reverse complement, which introduced a new HincII site, producing plasmid pEAG2678. The C95T variant was constructed using the mutagenic primer 5′ CAACCTATTACTGTCAGCAAACTAATGAAGATCCTCGGACGTTCG 3′ (SEQ ID NO: 39) and its reverse complement, which removed a BamHI site, producing plasmid pEAG2679. Mutated plasmids were identified by screening for the introduced restriction site changes. The full-length light chain cDNA sequences in the resultant plasmids were confirmed by DNA sequencing. Wildtype ch24F4 and the C95S and C95T variant mAbs were expressed transiently in 293E cells by co-transfection of pYL672 and pYL671, pEAG2678 or pEAG2679. Conditioned medium was harvested at 2 days post-transfection. Titers (assayed by Octet on anti-human Fc tips) of both variants were similar to that of wildtype ch24F4, and Western blots of nonreducing SDS-PAGE indicated no gross aggregation or obvious clipping relative to wildtype ch24F4 mAb. […] Conditioned medium containing ch24F4 and the C95 variant mAbs was assayed by Octet for binding to human BDCA2 ectodomain. Antibodies from conditioned medium from transiently transfected cells were bound to anti-human Fc tips, then monomeric huBDCA2 was flowed over the Octet tips, to examine binding and dissociation.
Conditioned medium containing ch24F4 and all hu24F4 variant mAbs was assayed by Octet for binding to human BDCA2 ectodomain. The monomeric huBDCA2 ectodomain was prepared by proteolytic cleavage from the purified muIgG2a Fc-huBDCA2 fusion protein (relevant plasmid: pEAG2423). Antibodies from conditioned medium from transiently transfected cells were bound to anti-human Fc tips, and then monomeric huBDCA2 was flowed over the Octet tips, to examine binding and dissociation.
To explore the possibility of enhancing hu24F4 affinity by substitution at the position of the 24F4 version L1 CDR L3 unpaired cysteine (C95S in hu24F4 light chain expression vector pYL740), a number of version L1 variants were constructed by site-directed mutagenesis. Backmutation to the unpaired cysteine, i.e., S95C, was constructed by site-directed mutagenesis producing plasmid pYL749. Variants S95T, S95A, and S95V were constructed by site-directed mutagenesis producing plasmids pYL750, pYL751, and pYL752, respectively. The full-length light chain cDNA sequences in the resultant plasmids were confirmed by DNA sequencing. C95 variant hu24F4 mAbs were expressed transiently in 293E cells by co-transfection of hu24F4 H4 heavy chain pYL746 or hu24F4 H5 heavy chain pYL747 with hu24F4 L1 variant light chains C95S pYL740, S95C pYL749, S95T pYL750, S95A pYL751 or S95V pYL752 plasmids. Conditioned medium was harvested at 2 days post-transfection. Titers (assayed by Octet on anti-human Fc tips) of all variants were similar, and Western blots of nonreducing SDS-PAGE indicated no gross aggregation or obvious clipping. Conditioned medium containing the C95 variant mAbs was assayed by Octet for binding to human BDCA2 ectodomain. Antibodies from conditioned medium from transiently transfected cells were bound to anti-human Fc tips, then monomeric huBDCA2 was flowed over the Octet tips, to examine binding and dissociation. C95A variants had the slowest off-rates.

[2] = Example 5, conditioned medium, hu24F4 variants
[3] = Example 6, conditioned medium, L1 position 95 variants

For “BIIB059: humanized IgG1 anti-BDCA2 antibody, mature heavy chain SEQ ID NO: 4 and mature light chain SEQ ID NO: 3”, which “effect of pre-incubation on IFNα inhibition” value [1] is on record?
Its value is “did not affect IFN inhibition; also recorded: did not alter the ability of BIIB059 to inhibit”.

What does the source list for “24F4S: hu24F4 H4/L1 with C95S light chain; differs from BIIB059 by 1 amino acid residue”?
kdis (human BDCA2 ectodomain; [2]): 0.000408 s⁻¹; kon (human BDCA2 ectodomain; [2]): 549000 M⁻¹ s⁻¹; kdis (human BDCA2 ectodomain; [3]): 0.000398 s⁻¹; kon (human BDCA2 ectodomain; [3]): 727000 M⁻¹ s⁻¹
